The record followed here is publication PMC3302164.

The test addresses HA-PP1β, expressed in HEK 293 cells (human) (UniProt P62140). The experiment in a line: co-IP.

Chain of HA-PP1β, expressed in HEK 293 cells (human) (P62140 whole entry): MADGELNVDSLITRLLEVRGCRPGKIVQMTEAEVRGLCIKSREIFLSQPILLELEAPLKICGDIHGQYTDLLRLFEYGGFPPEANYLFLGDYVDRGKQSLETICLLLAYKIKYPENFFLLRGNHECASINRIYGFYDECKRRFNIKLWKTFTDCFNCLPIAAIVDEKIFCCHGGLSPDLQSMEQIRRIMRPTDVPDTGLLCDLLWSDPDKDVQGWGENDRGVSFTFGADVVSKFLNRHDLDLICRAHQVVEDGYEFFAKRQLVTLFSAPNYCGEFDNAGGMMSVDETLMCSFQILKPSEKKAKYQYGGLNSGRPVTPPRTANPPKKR

“FLAG-KAP1 (wild type), expressed in HEK 293 cells (from UniProt Q13263 1-835) (natural protein)” came in with an extent of interaction relative to that with PP1α, after doxorubicin of 30%.
